Source: publication PMC5655542, “HpARI Protein Secreted by a Helminth Parasite Suppresses Interleukin-33” (Immunity, 2017)

Target: T1, H. polygyrus Alarmin Release Inhibitor (HpARI), recombinant mature 6-His and Myc-tagged protein (Heligmosomoides polygyrus)
T1 construct: HpARI, Heligmosomoides polygyrus; 251-aa protein including a 16-aa signal peptide; the mature protein (26 kDa, three CCP-like modules) was expressed; the CCP1/2 construct starts at amino acid 17; Codon-optimised synthetic gene cloned with AscI and NotI into pSecTAG2A; also called candidate D; not shown: myc, C-terminal, kept; His6, C-terminal, kept
Assay: SPR; BIAcore T200; HpARI captured via its 6-His tag on a Ni2+-NTA chip to 400 RU; cytokine injected (mIL-33 6.2-167 nM, hIL-33 0.062-1.67 μM); 25°C; 10 mM NaH2PO4 pH 7.5, 150 mM NaCl, 50 μM EDTA, 0.05% surfactant P20; single kinetic titration, global 1:1 fit
Settings: both partners purified

T1 sequence (A0A3P7XL18 63-297): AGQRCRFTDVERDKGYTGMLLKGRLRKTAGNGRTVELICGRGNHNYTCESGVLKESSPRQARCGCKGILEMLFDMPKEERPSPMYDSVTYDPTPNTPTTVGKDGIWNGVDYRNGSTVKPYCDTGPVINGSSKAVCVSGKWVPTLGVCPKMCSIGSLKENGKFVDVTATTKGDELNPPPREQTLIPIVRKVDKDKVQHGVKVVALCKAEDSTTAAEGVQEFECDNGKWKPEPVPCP

B1: recombinant murine IL-33, untreated (reduced, active form) (ligand)
chain: SIQGTSLLTQSPASLSTYNDQSVSFVLENGCYVINVDDSGKDQEQDQVLLRYYESPCPASQSGDGVDGKKLMVNMSPIKDTDIWLHANDKDYSVELQRGDVSPPEQAFFVLHKKSSDFVSFECKNLPGTYIGVKDNQLALVEEKDESCNNIMFKLSKI
modifications: reduced (free cysteines, no disulfides), active form; limits not given, taken as the usual commercial mature mouse IL-33 (Ser109-Ile266, UniProt chain 109-266)
Kd: 0.56 ± 0.1 nM | stoichiometry N: 1
